Measurements as given in paper PMC9932072.

Molecular target: Lys^B29Atto655-insulin aspart (human) (UniProt P01308)
Assay: single-molecule TIRF microscopy; 10 nM labelled insulin in solution binding to labelled insulin nonspecifically immobilised on a PLL-PEG passivated surface; no Zn^2+, no phenol; 10 mM Na2HPO4, 10 mM NaH2PO4, 5 mM NaCl, pH 7.32, room temperature; seven-state HMM, rate constants of each step between monomer and hexamer (kij: state i to state j)

Lys^B29Atto655-insulin aspart (from UniProt P01308 90-110; P01308 25-54) (natural protein)
k24 (association rate constant, dimer to tetramer): 2e+08 M⁻¹ s⁻¹
k31 (dissociation rate constant, trimer to monomer): 0.062 s⁻¹
